These are literature values, as cited in US5874218.

The data set has as its system T1, VEGF165 (Homo sapiens), P15692-4.
T1 sequence: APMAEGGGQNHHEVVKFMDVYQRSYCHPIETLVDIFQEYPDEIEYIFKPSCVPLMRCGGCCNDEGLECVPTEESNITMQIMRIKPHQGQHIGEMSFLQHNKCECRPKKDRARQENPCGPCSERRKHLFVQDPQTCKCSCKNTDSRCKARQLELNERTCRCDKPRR
The conditions noted are these: modified to be nuclease resistant (Green et al. 1995); CITED; value stated for the ligand with reference to Green et al. 1995.

As a reminder, the Kd is the concentration at which binding is half-saturated. In the case of “NTTTTACCCUGAUGGUAGACGCCGGGGUGTTTTT [NX-244]”, the dissociation constant (Kd) was 0.14 nM.
